These are literature values, as cited in PMC10746204.

The target of this data set is IFNAR2 (Homo sapiens) (UniProt P48551).
UniProt P48551, sequence (P48551 27-243): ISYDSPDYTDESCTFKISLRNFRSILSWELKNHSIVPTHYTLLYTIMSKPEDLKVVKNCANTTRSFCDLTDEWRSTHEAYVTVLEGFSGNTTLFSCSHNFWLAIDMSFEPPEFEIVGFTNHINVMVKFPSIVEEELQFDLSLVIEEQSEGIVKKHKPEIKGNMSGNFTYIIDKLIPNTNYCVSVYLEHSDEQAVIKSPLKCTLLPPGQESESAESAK

The Kd is the concentration at which binding is half-saturated. IFNα14 (from UniProt P01570): the Kd is 0.7 nM.
